Laboratory results taken from paper doi:10.1101/366336.

Columns and labels:
[1] = target: hPcf11 (in CF II);hClp1 (human;human) (UniProt O94913+Q92989); assay: filter binding; details: cap analog
hClp1 (human) = target: T1, hClp1 (human) (UniProt Q92989); assay: filter binding; details: cap analog
T1 sequence: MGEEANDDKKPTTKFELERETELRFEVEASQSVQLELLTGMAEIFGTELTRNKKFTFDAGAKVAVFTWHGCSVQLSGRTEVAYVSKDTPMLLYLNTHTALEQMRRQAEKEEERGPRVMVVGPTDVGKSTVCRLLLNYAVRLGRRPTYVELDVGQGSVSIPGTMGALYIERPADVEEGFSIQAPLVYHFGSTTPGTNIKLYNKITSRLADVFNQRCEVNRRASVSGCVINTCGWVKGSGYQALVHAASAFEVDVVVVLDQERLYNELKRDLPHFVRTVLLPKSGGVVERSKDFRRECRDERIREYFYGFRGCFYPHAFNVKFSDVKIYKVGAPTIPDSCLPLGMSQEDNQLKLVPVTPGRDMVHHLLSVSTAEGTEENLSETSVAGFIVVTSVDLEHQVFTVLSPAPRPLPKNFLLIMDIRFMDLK

hPcf11 (in CF II);hClp1 (human;human), sequence (O94913 whole entry, one chain of several): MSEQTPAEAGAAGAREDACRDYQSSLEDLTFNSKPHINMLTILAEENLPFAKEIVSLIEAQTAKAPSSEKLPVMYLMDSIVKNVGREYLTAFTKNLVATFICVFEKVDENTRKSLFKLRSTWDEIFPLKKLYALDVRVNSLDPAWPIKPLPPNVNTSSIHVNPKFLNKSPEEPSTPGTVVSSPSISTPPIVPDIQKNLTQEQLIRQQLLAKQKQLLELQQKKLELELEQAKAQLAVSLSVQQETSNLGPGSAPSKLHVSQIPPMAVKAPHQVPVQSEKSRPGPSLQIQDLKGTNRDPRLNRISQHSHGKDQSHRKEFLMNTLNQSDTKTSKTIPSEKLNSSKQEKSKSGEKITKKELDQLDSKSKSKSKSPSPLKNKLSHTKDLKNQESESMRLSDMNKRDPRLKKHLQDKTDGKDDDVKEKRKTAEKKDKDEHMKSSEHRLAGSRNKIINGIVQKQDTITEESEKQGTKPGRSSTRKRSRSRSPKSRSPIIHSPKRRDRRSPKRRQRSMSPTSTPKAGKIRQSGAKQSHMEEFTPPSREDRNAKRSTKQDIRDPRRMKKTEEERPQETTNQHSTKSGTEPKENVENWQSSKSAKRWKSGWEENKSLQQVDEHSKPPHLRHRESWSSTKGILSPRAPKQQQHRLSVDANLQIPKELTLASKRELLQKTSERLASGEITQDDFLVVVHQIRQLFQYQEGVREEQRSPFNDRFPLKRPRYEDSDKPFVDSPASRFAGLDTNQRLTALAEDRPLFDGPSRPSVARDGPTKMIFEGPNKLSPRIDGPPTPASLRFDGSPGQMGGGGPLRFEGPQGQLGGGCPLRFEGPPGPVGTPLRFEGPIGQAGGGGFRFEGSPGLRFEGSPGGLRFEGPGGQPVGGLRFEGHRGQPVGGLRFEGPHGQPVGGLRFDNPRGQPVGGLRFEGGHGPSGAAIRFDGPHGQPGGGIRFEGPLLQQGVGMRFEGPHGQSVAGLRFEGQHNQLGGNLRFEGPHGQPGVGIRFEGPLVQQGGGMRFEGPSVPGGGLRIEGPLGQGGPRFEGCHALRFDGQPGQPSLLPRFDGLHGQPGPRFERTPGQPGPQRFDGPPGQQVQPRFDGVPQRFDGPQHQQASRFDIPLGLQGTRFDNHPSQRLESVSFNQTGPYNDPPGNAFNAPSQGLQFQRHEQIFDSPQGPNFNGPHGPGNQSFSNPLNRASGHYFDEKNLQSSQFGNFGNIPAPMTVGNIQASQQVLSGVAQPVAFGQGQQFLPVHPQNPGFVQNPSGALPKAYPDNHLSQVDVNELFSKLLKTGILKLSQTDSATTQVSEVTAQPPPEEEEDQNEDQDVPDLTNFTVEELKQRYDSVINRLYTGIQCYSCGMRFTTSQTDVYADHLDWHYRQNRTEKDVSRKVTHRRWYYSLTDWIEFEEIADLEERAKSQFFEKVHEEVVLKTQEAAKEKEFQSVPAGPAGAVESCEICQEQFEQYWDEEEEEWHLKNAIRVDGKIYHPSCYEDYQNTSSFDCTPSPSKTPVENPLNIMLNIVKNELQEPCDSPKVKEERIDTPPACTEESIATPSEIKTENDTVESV

Substance	K half [1]	K half (hClp1 (human))
L3 RNA	0.9 nM	
SV40 late RNA	0.4 nM	140 nM
